Our source for the Kd values is article PMC10698503, “Phosphatase specificity principles uncovered by MRBLE:Dephos and global substrate identification” (Molecular Systems Biology, 2023).

The target in this experiment is His-PP1γ (UniProt P36873). As to the kind of experiment: ITC; peptide (approximately 450 µM, syringe) titrated into PP1γ (~35 µM, cell); 25°C; 50 mM sodium phosphate, 150 mM NaCl, 0.5 mM TCEP, pH 7.5; single-site model.
His-PP1γ, sequence (P36873 whole entry): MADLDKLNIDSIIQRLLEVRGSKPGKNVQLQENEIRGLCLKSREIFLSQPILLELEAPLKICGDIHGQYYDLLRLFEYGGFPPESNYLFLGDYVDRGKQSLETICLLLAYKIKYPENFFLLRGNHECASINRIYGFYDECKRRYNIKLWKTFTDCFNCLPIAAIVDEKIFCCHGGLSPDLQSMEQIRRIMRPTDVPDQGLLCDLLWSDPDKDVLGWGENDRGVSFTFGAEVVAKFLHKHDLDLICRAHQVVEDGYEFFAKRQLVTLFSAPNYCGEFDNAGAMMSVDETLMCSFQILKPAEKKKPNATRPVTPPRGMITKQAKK
What is called Kd is a measure of binding affinity in units of concentration. Low values mean higher affinity, high ones lower affinity. “KNL1 1441-1455 pS1448 peptide KLNSKRV(pS)FKLPKDQW” registered a dissociation constant (Kd) of 1.73 µM.

The substance “Nipp1 197-209 pT202 peptide AKNSRV(pT)FSEDDEIW” returned an equilibrium dissociation constant (Kd) of 4.51 µM.

For Sororin 76-96 pS79 peptide PRR(pS)…, the Kd came to 7.24 µM.

Sororin 76-96 pS83 peptide PRRSPRI(pS)… displayed a Kd of 3.46 µM.
